Values quoted from earlier work, collected in PMC6136702.

Target: EGFR (Homo sapiens) (UniProt P00533)

- Kd: 0.2 nM
Substance: EGF (from UniProt P01133)
